Results published in patent publication US20180185450A1 (Sanofi, published 2018).
Ends that are not written are not given here.

Each binder was assayed against human glucagon receptor (human, UniProt P47871 26-477) (assay: cell-based or functional assay).
Chain of human glucagon receptor (P47871 26-477): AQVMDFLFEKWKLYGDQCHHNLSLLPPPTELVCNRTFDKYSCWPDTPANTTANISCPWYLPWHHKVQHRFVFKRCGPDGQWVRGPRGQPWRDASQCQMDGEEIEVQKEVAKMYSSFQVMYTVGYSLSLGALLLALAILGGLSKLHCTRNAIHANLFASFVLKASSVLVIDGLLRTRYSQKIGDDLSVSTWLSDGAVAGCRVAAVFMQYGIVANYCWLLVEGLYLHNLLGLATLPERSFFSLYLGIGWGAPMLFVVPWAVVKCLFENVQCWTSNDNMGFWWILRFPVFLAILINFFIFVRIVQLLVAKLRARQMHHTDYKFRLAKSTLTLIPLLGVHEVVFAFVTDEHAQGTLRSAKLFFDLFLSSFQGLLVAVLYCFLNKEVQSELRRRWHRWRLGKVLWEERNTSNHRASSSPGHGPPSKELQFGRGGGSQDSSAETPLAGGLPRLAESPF
For HXQGTFTSDLSKQKESRAAQDFIEWLKAGGPSSGAPPPS (dSer at 2; K(γE-x80) at 14; C-terminal NH2) [SEQ ID NO: 62], the “EC50 hGlucagon-R (cAMP)” value was 10.6 pM.
In the case of HXQGTFTSDLSKQKESKAAQDFIEWLKAGGPSSGAPPPS (dSer at 2; K(GABA-x53) at 14; C-terminal NH2) [SEQ ID NO: 7], the “EC50 hGlucagon-R (cAMP)” value is reported as 20.7 pM.
In the case of HXQGTFTSDLSKQKESRAAQDFIEWLKAGGPSSGAPPPS (dSer at 2; K(γE-x74) at 14; C-terminal NH2) [SEQ ID NO: 55], the “EC50 hGlucagon-R (cAMP)” value is reported as 15.8 pM.
For HXQGTFTSDLSKQKESRAAQLFIEWLKAGGPSSGAPPPS (dSer at 2; K(γE-x53) at 14; C-terminal NH2) [SEQ ID NO: 70], the “EC50 hGlucagon-R (cAMP)” value was 40.9 pM.
For HXQGTFTSDLSKQKESRRAQDFIEWLKXGGPSSGAPPPS (dSer at 2; K(γE-x53) at 14; Aib at 28; C-terminal NH2) [SEQ ID NO: 79], the “EC50 hGlucagon-R (cAMP)” value was 7.5 pM.
In the case of HXQGTFTSDLSKQKDSRRAQDFIEWLKDGGPSSGAPPPS (dSer at 2; K(γE-x53) at 14; C-terminal NH2) [SEQ ID NO: 80], the “EC50 hGlucagon-R (cAMP)” value is reported as 1 pM.
For HXQGTFTSDLSKQKESRAAQDFIEWLKAGGPSSGAPPPS (dSer at 2; K(βA-βA-x70) at 14; C-terminal NH2) [SEQ ID NO: 54], the “EC50 hGlucagon-R (cAMP)” value was 4 pM.
HXQGTFTSDLSKQKESRAAQDFIEWLKAGGPSSGAPPPS (dSer at 2; K(γE-γE-x70) at 14; C-terminal NH2) [SEQ ID NO: 52] was tested, and the “EC50 hGlucagon-R (cAMP)” value was 2 pM.
In the case of HXQGTFTSDLSKQKESRAAQDFIEWLKAGGPSSGAPPPS (dSer at 2; K(γE-x81) at 14; C-terminal NH2) [SEQ ID NO: 63], the “EC50 hGlucagon-R (cAMP)” value is reported as 8.4 pM.
HXQGTFTSDLSKQKESRAAQDFIEWLKAGGPSSGAPPPS (dSer at 2; K(γE-x82) at 14; C-terminal NH2) [SEQ ID NO: 64] was tested, and the “EC50 hGlucagon-R (cAMP)” value was 6.9 pM.
In the case of HXQGTFTSDLSKQXESRRAQDFIEWLKAGGPSSGAPPPS (dSer at 2; Dab(γE-x53) at 14; C-terminal NH2) [SEQ ID NO: 72], the “EC50 hGlucagon-R (cAMP)” value is reported as 386 pM.
HXQGTFTSDLSKQKDSRRAQDFIEWLKDGGPSSGAPPPS (dSer at 2; K(x53) at 14; C-terminal NH2) [SEQ ID NO: 81] was tested, and the “EC50 hGlucagon-R (cAMP)” value was 7.1 pM.
For HXQGTFTSDLSKQXESRRAQDFIEWLKAGGPSSGAPPPS (dSer at 2; Orn(γE-x53) at 14; C-terminal NH2) [SEQ ID NO: 71], the “EC50 hGlucagon-R (cAMP)” value was 5.6 pM.
With HXQGTFTSDLSKQKESRRAQDFIEWLKEGGPSSGRPPPS (dSer at 2; K(x53) at 14; C-terminal NH2) [SEQ ID NO: 83] the “EC50 hGlucagon-R (cAMP)” value was 41.3 pM.
For HXQGTFTSDLSKQKESRAAQDFIEWLKAGGPSSGAPPPS (dSer at 2; K(GABA-x60) at 14; C-terminal NH2) [SEQ ID NO: 58], the “EC50 hGlucagon-R (cAMP)” value was 15.1 pM.
HXQGTFTSDLSKQKESRRAQDFIEWLKKGGPSSGAPPPS (dSer at 2; K(γE-x53) at 14; C-terminal NH2) [SEQ ID NO: 85] was tested, and the “EC50 hGlucagon-R (cAMP)” value was 10.4 pM.
HXQGTFTSDLSKQKESRAAQDFIEWLKAGGPSSGAPPPS (dSer at 2; K(γE-x60) at 14; C-terminal NH2) [SEQ ID NO: 57] was tested, and the “EC50 hGlucagon-R (cAMP)” value was 8 pM.

These binders were tested against human GLP-1 receptor (human, UniProt P43220 24-463) (assay: cell-based or functional assay).
HAEGTFTSDVSSYLEGQAAKEIAWLVKGR-NH2 [GLP-1(7-36)-amide] was tested, and the “EC50 hGLP-1R (cAMP)” value was 0.7 pM.
In the case of HXQGTFTSDLSKQKESRAAQDFIEWLKAGGPSSGAPPPS (dSer at 2; K(γE-x80) at 14; C-terminal NH2) [SEQ ID NO: 62], the “EC50 hGLP-1R (cAMP)” value is reported as 3.9 pM.
For HXQGTFTSDLSKQKESKAAQDFIEWLKAGGPSSGAPPPS (dSer at 2; K(GABA-x53) at 14; C-terminal NH2) [SEQ ID NO: 7], the “EC50 hGLP-1R (cAMP)” value was 3.5 pM.
In the case of HXQGTFTSDLSKQKESRAAQDFIEWLKAGGPSSGAPPPS (dSer at 2; K(γE-x74) at 14; C-terminal NH2) [SEQ ID NO: 55], the “EC50 hGLP-1R (cAMP)” value is reported as 5.4 pM.
HXQGTFTSDLSKQKESRAAQLFIEWLKAGGPSSGAPPPS (dSer at 2; K(γE-x53) at 14; C-terminal NH2) [SEQ ID NO: 70] was tested, and the “EC50 hGLP-1R (cAMP)” value was 6.5 pM.
In the case of HXQGTFTSDLSKQKESRRAQDFIEWLKXGGPSSGAPPPS (dSer at 2; K(γE-x53) at 14; Aib at 28; C-terminal NH2) [SEQ ID NO: 79], the “EC50 hGLP-1R (cAMP)” value is reported as 23.3 pM.
For HXQGTFTSDLSKQKDSRRAQDFIEWLKDGGPSSGAPPPS (dSer at 2; K(γE-x53) at 14; C-terminal NH2) [SEQ ID NO: 80], the “EC50 hGLP-1R (cAMP)” value was 5.8 pM.
HXQGTFTSDLSKQKESRAAQDFIEWLKAGGPSSGAPPPS (dSer at 2; K(βA-βA-x70) at 14; C-terminal NH2) [SEQ ID NO: 54] was tested, and the “EC50 hGLP-1R (cAMP)” value was 4.8 pM.
For HXQGTFTSDLSKQKESRAAQDFIEWLKAGGPSSGAPPPS (dSer at 2; K(γE-γE-x70) at 14; C-terminal NH2) [SEQ ID NO: 52], the “EC50 hGLP-1R (cAMP)” value was 1.9 pM.
For HXQGTFTSDLSKQKESRAAQDFIEWLKAGGPSSGAPPPS (dSer at 2; K(γE-x81) at 14; C-terminal NH2) [SEQ ID NO: 63], the “EC50 hGLP-1R (cAMP)” value was 4.9 pM.
In the case of HXQGTFTSDLSKQKESRAAQDFIEWLKAGGPSSGAPPPS (dSer at 2; K(γE-x82) at 14; C-terminal NH2) [SEQ ID NO: 64], the “EC50 hGLP-1R (cAMP)” value is reported as 3.1 pM.
With HXQGTFTSDLSKQXESRRAQDFIEWLKAGGPSSGAPPPS (dSer at 2; Dab(γE-x53) at 14; C-terminal NH2) [SEQ ID NO: 72] the “EC50 hGLP-1R (cAMP)” value was 25.9 pM.
For HXQGTFTSDLSKQKDSRRAQDFIEWLKDGGPSSGAPPPS (dSer at 2; K(x53) at 14; C-terminal NH2) [SEQ ID NO: 81], the “EC50 hGLP-1R (cAMP)” value was 48 pM.
In the case of HXQGTFTSDLSKQXESRRAQDFIEWLKAGGPSSGAPPPS (dSer at 2; Orn(γE-x53) at 14; C-terminal NH2) [SEQ ID NO: 71], the “EC50 hGLP-1R (cAMP)” value is reported as 20.5 pM.
For HXQGTFTSDLSKQKESRRAQDFIEWLKEGGPSSGRPPPS (dSer at 2; K(x53) at 14; C-terminal NH2) [SEQ ID NO: 83], the “EC50 hGLP-1R (cAMP)” value was 53.9 pM.
For HXQGTFTSDLSKQKESRAAQDFIEWLKAGGPSSGAPPPS (dSer at 2; K(GABA-x60) at 14; C-terminal NH2) [SEQ ID NO: 58], the “EC50 hGLP-1R (cAMP)” value was 45.6 pM.
In the case of HXQGTFTSDLSKQKESRRAQDFIEWLKKGGPSSGAPPPS (dSer at 2; K(γE-x53) at 14; C-terminal NH2) [SEQ ID NO: 85], the “EC50 hGLP-1R (cAMP)” value is reported as 8.1 pM.
For HXQGTFTSDLSKQKESRAAQDFIEWLKAGGPSSGAPPPS (dSer at 2; K(γE-x60) at 14; C-terminal NH2) [SEQ ID NO: 57], the “EC50 hGLP-1R (cAMP)” value was 45 pM.
